Test results as given in patent publication US20230189818A1, “RNA-BASED CONTROL OF BOTRYTIS” (priority 2021, published 2023).

Experiments:
[1] = tested on: Botrytis cinerea B05.10 isolate; test: Greenhouse whole plant assay (tomato 'Lanai', disease severity); type: in vivo; conditions: final rating day (rating #3), two runs, three-week-old 'Lanai' tomato plant
B. cinerea [2] = test: Open-air field trial on strawberry (Example 4.4, AUDPC of % disease severity); type: in vivo, Botrytis cinerea; conditions: FIG. 10
Method: RNAi compositions, each containing a dsRNA comprising a trigger sequence (GS349) described herein were evaluated for ability to control botrytis on strawberry in open-air field trials. All test samples were formulated as described in Example 4.3 and were tank mixed with standard adjuvant, Activator 90 0.25% v/v. Compositions were tested at concentrations of 10, 20, 30, and 40 g ai/ha. A biological standard program of Regalia 470 g ai/ha and Stylet Oil 6800 g ai/ha was used as a positive control. A chemical standard program of Captan 2240 g ai/ha and Switch 525 g ai/ha was used for a second positive control. An untreated check group was used as a negative control.
Compositions were applied to strawberry plants using a small plot sprayer delivering 50 gallons of water per acre. Five applications were made at weekly intervals. Disease state was evaluated beginning 6 days after the first application and ending 12 days after the fifth and final application. Percent Disease Severity was assessed and AUDPC was calculated in the same manner as noted in Example 4.1.

Botrytis = test: Open-air field trial on strawberry (Example 4.1, AUDPC of % disease severity); type: in vivo, Botrytis cinerea; conditions: FIG. 6
Method: RNAi compositions, each containing a dsRNA comprising a trigger sequence (GS349 or GS730) described herein were evaluated for ability to control botrytis on strawberry in open-air field trials. Non-formulated (dissolved in water) GS349 and GS730 were each tank mixed with water and the standard adjuvant Silwet L-77 0.1% v/v. GS349 was tested at concentrations of 25 grams of active ingredient per hectare (g ai/ha) and 50 g ai/ha and GS730 was tested at a concentration of 100 g ai/ha. Serenade ASO 85 g ai/ha, a standard biological fungicide, was used as a positive control. A second positive control group was treated with alternating applications of the chemical standards Teldor Plus 750 g ai/ha, Signum 600 g ai/ha, and Switch 500 g ai/ha. The trial also included an untreated group as a negative control.
Test compositions and positive controls were sprayed onto strawberry plants in 12 applications. Plants were observed beginning 14 days after the first application and disease progress was assessed by determining the percentage of surface area of fruit that was affected by the disease (% Disease Severity). Disease severity was plotted over the length of the trial observations and area under disease progress curve (AUDPC) was calculated in order to measure the cumulative effect of the various treatments across multiple assessments. Means were separated according to Fisher's LSD, alpha (p)≤0.05.

B. cinerea [3] = test: Open-air field trial on snap bean (Example 4.3, AUDPC of % disease severity); type: in vivo, Botrytis cinerea; conditions: Switch 525 g ai/ha, GS349 20 and 40, GS2280 10 and 40, GS2303 10, 20 and 40, GS2297 20 g ai/ha, FIG. 9
Method: RNAi compositions, each containing a dsRNA comprising a trigger sequence (GS349, GS2280, GS2303, or GS2297) described herein were evaluated for ability to control botrytis on snap bean in open-air filed trials. All test samples were formulated with RO water, propylene glycol, a linear alcohol ethoxylate, a lignosulfanate, sodium citrate dihydate, a polyacrylic acid polymer, two biocide compositions, anhydrous citric acid, and an antifoam, all of which are readily commercially available. Formulation samples were tank mixed with a standard adjuvant, the non-ionic surfactant, Activator 90 0.125%v/v. Compositions were tested at concentrations of 10, g ai/ha, 20 g ai/ha, and 40 g ai/ha. Positive controls were a chemical standard, Switch 525 g ai/ha and a biological standard, Double Nickel LC 9.4 I/ha, both of which were also tank mixed with Activator 90 0.125% v/v. As above, an untreated check was used as a negative control.
Compositions were applied to snap bean plants using a small plot sprayer delivering 50 gallons of water per acre. A total of three applications were used for each sample and positive control. Disease state was evaluated beginning 8 days after the first application and ending 37 days after the third and final application. Percent Disease Severity was assessed and AUDPC was calculated in the same manner as noted in Example 4.1.

B1: GS349: dsRNA trigger targeting B. cinerea CDC42 (XM_001545642.2); trigger SEQ ID NO 14, RNA 26, reverse complement 38 (nucleic acid, listed as Botrytis cinerea)
sense: GUUGUCUUGUCUCGCUCAAGCUUGUCCUGUCUGGUCACUUUUCUUUCUGCCUGAUAAUCCAGACCUCGAAAAUAACCAAAAGAUUGGAAAUCGUUUGCUCAUCUUGCAUGCAUUAUUACUUUCCUGGAUCAAUCUCAUUCAACUCGUUCUCGUGCAUUUCAUUCAACCUCAACCCCUACUUUCAGUCAAUUCAAUUUAAUUCAAUCAUUCAAAUCUUUCAUUUCGCACACUUCACAUUCAACCAUCCUCUCUCAAUCAAAUAUCACCACCUCUCUUAUCGAACGUCAUUUUGCAUACAAUCAAUUCCUACAGACCGAGCGCAACUCGAUACAACCAUCGAAUAACUUCUCACACUUGCUUGUUGAAUUGAUUACUGAAGAAAGUGGAUUUCAAAGACCGAUUUUCCCCCUAGAUAUUCAAGAACGGCUUAUUCUUGUCUCGAGACAAAAC
antisense: GUUUUGUCUCGAGACAAGAAUAAGCCGUUCUUGAAUAUCUAGGGGGAAAAUCGGUCUUUGAAAUCCACUUUCUUCAGUAAUCAAUUCAACAAGCAAGUGUGAGAAGUUAUUCGAUGGUUGUAUCGAGUUGCGCUCGGUCUGUAGGAAUUGAUUGUAUGCAAAAUGACGUUCGAUAAGAGAGGUGGUGAUAUUUGAUUGAGAGAGGAUGGUUGAAUGUGAAGUGUGCGAAAUGAAAGAUUUGAAUGAUUGAAUUAAAUUGAAUUGACUGAAAGUAGGGGUUGAGGUUGAAUGAAAUGCACGAGAACGAGUUGAAUGAGAUUGAUCCAGGAAAGUAAUAAUGCAUGCAAGAUGAGCAAACGAUUUCCAAUCUUUUGGUUAUUUUCGAGGUCUGGAUUAUCAGGCAGAAAGAAAAGUGACCAGACAGGACAAGCUUGAGCGAGACAAGACAAC
**Q.** For B1, which “% control” value ([1]; 8 g ai/ha) is on record?
**A.** The value was 46%.

**Q.** What about the “% control” value ([1]; 25 g ai/ha) of the same molecule?
**A.** The value was 59%.

**Q.** What about the “Disease compared with the chemical standard program (AUDPC)” value (B. cinerea [2]; 10, 20, 30 and 40 g ai/ha, Captan 2240 g ai/ha and Switch 525 g ai/ha) of the same molecule?
**A.** Its value is “no significant difference”.

**Q.** And the “Disease compared with the biological standard program (AUDPC)” value (B. cinerea [2]; 10, 20, 30 and 40 g ai/ha, Regalia 470 g ai/ha and Stylet Oil 6800 g ai/ha)?
**A.** The value was “no significant difference”.

**Q.** And the “Disease caused by B. cinerea vs untreated check (AUDPC)” value (B. cinerea [2]; formulated, Activator 90 0.25% v/v, 10, 20, 30 and 40 g ai/ha, five weekly applications)?
**A.** Its value is “significantly reduced disease”.

**Q.** And the “Disease control compared with the biological standard (AUDPC)” value (Botrytis; 50 g/h ai, Serenade ASO 85 g ai/ha)?
**A.** The value was “significantly improved control”.

**Q.** And the “Disease control compared with the chemical standard (AUDPC)” value (Botrytis; 50 g/h ai, alternating Teldor Plus, Signum, Switch)?
**A.** The value was “not significantly different”.

**Q.** And the “Disease control compared with the biological standard, Serenade (AUDPC)” value (Botrytis; GS349 25 g ai/ha, GS730 100 g ai/ha, Serenade ASO 85 g ai/ha)?
**A.** The value was “not significantly different”.

**Q.** And the “Control of Botrytis vs. the untreated control (AUDPC)” value (Botrytis; non-formulated, Silwet L-77 0.1% v/v, 12 applications, GS349 25 and 50 g ai/ha, GS730 100 g ai/ha)?
**A.** Its value is “significant control”.

**Q.** And the “Disease state compared to treatment with the chemical standard (AUDPC)” value (B. cinerea [3])?
**A.** The value was “no significant difference”.
